# Experimental data from IntAct's records for PubMed 23622247.
# B1: Rho-related GTP-binding protein RhoE (Mus musculus), P61588 (parent)
# chain: MKERRASQKLSSKSIMDPNQNVKCKIVVVGDSQCGKTALLHVFAKDCFPENYVPTVFENYTASFEIDTQRIELSLWDTSGSPYYDNVRPLSYPDSDAVLICFDISRPETLDSVLKKWKGEIQEFCPNTKMLLVGCKSDLRTDVSTLVELSNHRQTPVSYDQGANMAKQIGAATYIECSALQSENSVRDIFHVATLACVNKTNKNVKRNKSQRATKRISHMPSRPELSAVATDLRKDKAKSCTVM
# Variants of: B1
# Conditions: with rhg05_human ARHGAP5, Q13017
# Chain of rhg05_human ARHGAP5, Q13017 (Q13017 whole entry): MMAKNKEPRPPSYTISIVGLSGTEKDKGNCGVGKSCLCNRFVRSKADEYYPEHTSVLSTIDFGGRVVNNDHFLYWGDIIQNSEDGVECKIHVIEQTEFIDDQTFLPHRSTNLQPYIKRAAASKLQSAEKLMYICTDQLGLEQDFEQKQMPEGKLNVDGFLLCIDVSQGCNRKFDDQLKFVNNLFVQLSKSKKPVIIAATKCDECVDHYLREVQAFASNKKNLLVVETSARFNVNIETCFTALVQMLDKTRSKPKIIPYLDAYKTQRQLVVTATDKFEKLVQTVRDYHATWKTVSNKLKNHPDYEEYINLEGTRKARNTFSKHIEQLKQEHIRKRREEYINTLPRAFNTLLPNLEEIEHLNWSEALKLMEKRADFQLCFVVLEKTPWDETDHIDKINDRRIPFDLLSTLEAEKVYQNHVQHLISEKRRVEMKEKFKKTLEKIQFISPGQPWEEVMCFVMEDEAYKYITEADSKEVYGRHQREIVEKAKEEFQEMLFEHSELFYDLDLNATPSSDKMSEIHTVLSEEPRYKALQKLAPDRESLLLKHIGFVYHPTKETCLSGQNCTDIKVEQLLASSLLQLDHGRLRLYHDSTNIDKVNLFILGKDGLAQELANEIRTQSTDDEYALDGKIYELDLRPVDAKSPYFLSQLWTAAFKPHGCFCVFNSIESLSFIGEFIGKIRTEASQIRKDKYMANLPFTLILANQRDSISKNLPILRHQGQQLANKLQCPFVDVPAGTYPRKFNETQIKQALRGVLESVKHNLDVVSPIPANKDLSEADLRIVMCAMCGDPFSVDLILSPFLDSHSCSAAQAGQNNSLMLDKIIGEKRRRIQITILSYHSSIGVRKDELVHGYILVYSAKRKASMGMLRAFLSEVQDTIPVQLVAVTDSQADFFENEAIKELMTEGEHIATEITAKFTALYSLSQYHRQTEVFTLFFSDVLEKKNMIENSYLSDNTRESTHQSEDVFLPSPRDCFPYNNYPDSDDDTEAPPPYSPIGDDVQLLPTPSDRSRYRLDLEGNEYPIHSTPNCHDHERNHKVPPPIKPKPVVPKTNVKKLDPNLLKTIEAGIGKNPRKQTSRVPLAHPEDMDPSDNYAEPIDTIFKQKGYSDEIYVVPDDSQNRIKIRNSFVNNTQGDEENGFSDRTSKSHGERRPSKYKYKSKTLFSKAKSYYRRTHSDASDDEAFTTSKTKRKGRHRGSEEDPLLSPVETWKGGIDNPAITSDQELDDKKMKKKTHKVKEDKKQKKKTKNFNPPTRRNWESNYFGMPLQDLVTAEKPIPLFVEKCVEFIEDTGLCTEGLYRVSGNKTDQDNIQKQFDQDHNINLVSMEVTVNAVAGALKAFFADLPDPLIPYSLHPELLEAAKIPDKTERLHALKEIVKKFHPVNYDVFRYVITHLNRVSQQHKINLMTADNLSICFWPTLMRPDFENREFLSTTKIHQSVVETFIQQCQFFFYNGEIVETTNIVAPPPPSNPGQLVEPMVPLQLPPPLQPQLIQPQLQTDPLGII
row,Variant,effect of a mutation on the interaction
1,MKERRASQKLSSKSIMDPNQNVKCKIVVVGDSQCGKTALLHVFAKDCFPENYVPVVFENYTASFEIDTQRIELSLWDTSGSPYYDNVRPLSYPDSDAVLICFDISRPETLDSVLKKWKGEIQEFCPNTKMLLVGCKSDLRTDVSTLVELSNHRQTPVSYDQGANMAKQIGAATYIECSALQSENSVRDIFHVATLACVNKTNKNVKRNKSQRATKRISHMPSRPELSAVATDLRKDKAKSCTVM [T55V],disrupting interaction strength

# Variants of: B1
# Conditions: with 1433b_human YWHAB
row,Variant,effect of a mutation on the interaction
1,MKERRAAQKLASKSIMDPNQNVKCKIVVVGDSQCGKTALLHVFAKDCFPENYVPTVFENYTASFEIDTQRIELSLWDTSGSPYYDNVRPLSYPDSDAVLICFDISRPETLDSVLKKWKGEIQEFCPNTKMLLVGCKSDLRTDVSTLVELSNHRQTPVSYDQGANMAKQIGAATYIECSALQSENSVRDIFHVATLACVNKTNKNVKRNKAQRAAKRIAHMPARPELSAVATDLRKDKAKACTVM [S7A;S11A;S210A;T214A;S218A;S222A;S240A],disrupting interaction strength

# Variants of: B1
# Conditions: with 1433b_human YWHAB
# Remark: another data set of the same source
row,Variant,effect of a mutation on the interaction
1,MKERRASQKLSSKSIMDPNQNVKCKIVVVGDSQCGKTALLHVFAKDCFPENYVPTVFENYTASFEIDTQRIELSLWDTSGSPYYDNVRPLSYPDSDAVLICFDISRPETLDSVLKKWKGEIQEFCPNTKMLLVGCKSDLRTDVSTLVELSNHRQTPVSYDQGANMAKQIGAATYIECSALQSENSVRDIFHVATLACVNKTNKNVKRNKAQRAAKRIAHMPSRPELSAVATDLRKDKAKSCTVM [S210A;T214A;S218A],disrupting interaction strength
